Assay [1] concerns TrkB receptor. In words: Western blot of TrkB receptor and phospho-Trk levels after BDNF in hippocampal cultures at 4 DIV. The following applies: for TrkB receptor level normalized to time of BDNF administration: 50 ng/ml BDNF for 30 min. Format: cell-based, mouse. As to the method:
(§1) Hippocampi were dissected from P0-P1 mice, dissociated with papain (20 units/ml) in Earle's Balanced Salt Solution (EBSS) with bicarbonate at 37° C. for 30 min and triturated with a 1 ml pipette. Hippocampal neurons were placed on 8-well chamber slides coated with 1 mg/ml poly-D-lysine at a cell density of 3×10^5 cells/ml. For neuronal morphology, neurons at 1 DIV were transfected with EGFP constructs or together with testing constructs at a ratio of 1:1 using Lipofectamine 2000 (Invitrogen) according to manufacturer guidelines. For LysoTracker experiments, GFP transfected neurons at 5 DIV were incubated with 100 nM Lysotracker Red DND-99 at 37° C. for 30 min. After washing with PBS for 3 times, cells were imaged live or cells were fixed with 4% paraformaldehyde for 15 min and Z-series images were obtained under a Zeiss LSM710 confocal laser scanning microscope.
Next, we examined directly the levels of TrkB receptor in response to signaling. TrkB is well-known to be endocytosed upon binding BDNF and a significant degree of signaling has been proposed to occur within signaling endosomes upon endocytosis. […] To test this hypothesis, we examined TrkB receptor levels and phospho-Trk levels in response to BDNF signaling in NHE6 mutant and wild type hippocampal cultures at 4 DIV.

The test system of assay [2] is NHE6 mutant hippocampal neurons. The experiment in a line: Axonal and dendritic branching of cultured hippocampal neurons with exogenous BDNF. In kind it is cell-based, mouse. As to the method: as §1
Images of cultured hippocampal neurons (2 DIV) were captured from randomly chosen fields on a Zeiss LSM710 confocal laser scanning microscope, blinded to genotypes, and traced using Metamorph Neurite Outgrowth software. The number of processes (i.e., neurites emanating directly from the cell body) per cell, the total number and total cumulative length of all neurite branches per cell and the length of the longest neurite per cell were determined. Z-series images of individual GFP-filled neurons at 5 DIV were obtained on a Carl Zeiss 710 confocal microscope and traced manually using Neurolucida software. Quantification of the branch number and total length of axons and dendrites per cell was done on images acquired with 20× objective. Quantitative analysis for LysoTracker red labeled endosomes was performed by using Neurolucida in images acquired with 63× objective. LysoTracker red puncta that completely overlapped with GFP-labeled dendrites or axons were scored as co-localized endosomes. Each experiment was performed on at least three different batches of cultured neurons.
Taken together our data support a model wherein due to loss of NHE6 there is an abnormal acidification of early endosomes resulting in impoverished branching as a result of decreases in BDNF/TrkB signaling. Given this model, we predicted that exogenous and high levels of BDNF may rescue the branching defects through enhancing TrkB signaling. To investigate the ability of exogenous BDNF to interact and improve the cellular phenotype seen, we added BDNF (50 ng/ml) to wild-type and mutant cultures at 2 DIV and examined cultures on day 5 for effects on axonal and dendritic branching associated with NHE6 mutation. […] We saw effects on both branching as well as an increase in the number of primary dendrites. […]

Setting [3] is: NHE6 mutant neurons, BDNF 50 ng/ml added at 2 DIV, examined on day 5.

Results on one molecule are retold here after patent publication US20160193296A1, “METHODS FOR TREATMENT OF MICROCEPHALY ASSOCIATED AUTISM DISORDERS” (BROWN UNIVERSITY, priority 2012, published 2016).

B1: BDNF: secreted protein, member of the neurotrophin family of growth factors; binds to the TrkB receptors (protein)
chain: HSDPARRGELSVCDSISEWVTAADKKTAVDMSGGTVTVLEKVPVSKGQLKQYFYETKCNPMGYTKEGCRGIDKRHWNSQCRTTQSYVRALTMDSKKRIGWRFIRIDTSCVCTLTIKRGR
With B1, the “TrkB receptor level normalized to time of BDNF administration” value in assay [1] (NHE6 mutant neurons) is listed as 0.79+/−0.04. The “TrkB receptor level in mutant neurons as % of the control” value in assay [1] (mutant/WT, 50 ng/ml BDNF, 30 min) was 76.5%. Moreover, in assay [1] (mutant/WT, 50 ng/ml BDNF, 60 min), the “TrkB receptor level in mutant neurons as % of wild type” value is 73.3%. Further, the “TrkB receptor level in mutant neurons as % of wild type” value in assay [1] (mutant/WT, 50 ng/ml BDNF, 2 h) is 74.9%. Besides, in assay [1] (mutant/WT, after adding BDNF, throughout the whole treatment duration), the “induction of phospho-Trk in mutant compared to control” value is “approximately 48%”. Further, in assay [1] (wild type neurons), the “TrkB receptor level normalized to time of BDNF administration” value was 1.03+/−0.06. The “rescue of branching defects (in words)” value in assay [2] (NHE6 mutant cells, BDNF 50 ng/ml, 2 DIV to day 5) was “increased both axonal and dendritic branching in mutant cells to a level approaching wild-type levels”. Besides, in assay [2] (setting [3]), the axonal branching was 27.7+/−2.0 branch points per cell, the dendritic branching is given as 34.4+/−2.4 branches per cell and the primary dendrites is 8.7+/−0.4 dendrites.
